Results published in US20050171008A1, “Monomeric insulin” (priority 2002, published 2005).

What was measured:
[1] = target: Lyspro (B28Lys, B29Pro insulin) (UniProt P01308); experiment: self-association by size exclusion chromatography, Superdex 75, PBS pH 7.4, 80 umol/l protein
[2] = Determination of self-association property by size exclusion chromatography (Superdex 75); format: physicochemical
Description: The molecular homogeneity was measured by Symmetry factor Fs. Fs=W0.05h/2A, wherein, W0.05 is the band width at 0.05 peak height and A is the width of the first half peak at 0.05 peak height. The change of average molecular weight was measured by plotting the distribution coefficient Kav vs. protein concentration. Kav=(Vr−V0)/(Vc−Vo), wherein Vr is the retention volume, Vo the void volume and Vc the total bed volume.

Substance	Kav [1]	retention time on Superdex 75 column versus protein concentration ([2]; PBS pH7.4, 40-600 μmol/L)	Kav value versus protein concentration ([2]; PBS pH7.4, increasing concentration)	Fs value (symmetry factor, peak shape) versus protein concentration ([2]; PBS pH7.4, insulin: at concentrations above 400 umol/L)
Lyspro (B28Lys, B29Pro insulin) (from UniProt P01308 25-110; P01308 25-110)	0.48			
zinc free insulin: zinc free porcine insulin used as control in size exclusion chromatography		decreased with increasing concentration	decreased with increasing concentration	increased markedly
